The Human Domainome abundance scans (Beltran et al. 2025)

B1: Transcriptional regulator ERG, residues 117 to 197; numbered along this chain, P11308 (parent)
chain: NMTTNERRVIVPADPTLWSTDHVRQWLEWAVKEYGLPDVNILLFQNIDGKELCKMTKDDFQRLTPSYNADILLSHLHYLRE

Variants of: B1
Assay: abundance fitness (aPCA) (normalised: wild type 0, dead -1); higher = more abundant; growth selection in yeast, the domain comes from the species named
Settings: Homo sapiens

Abundance fitness, by site and new letter:
S66: I -0.178; C -0.005; T -0.12; N 0.11; Q -0.012; M -0.295; D -0.185; H -0.107; G -0.025; A 0.058; F -0.039; E 0.03; L -0.239; P 0.03; W -0.28; R -0.057; V -0.117; K -0.056
L73: E -0.293; V -0.028; D -0.156; S -0.063; H -0.061; Q -0.144; W -0.028; C 0.075; A 0.023; R -0.039; M 0.015; G -0.183; N -0.201; Y -0.054; I -0.034; K -0.292; T -0.016; P -0.634
P65: A 0.025; D 0.07; F 0.342; W -0.109; K -0.107; N -0.271; R -0.017; H 0.135; M 0.048; S 0.044; L -0.146; Y 0.109; G -0.004; Q -0.265; I -0.449; T 0.02; E -0.088; C 0.051
R80: P -0.01; Q 0.071; G -0.152; A 0.021; E -0.166; F 0.003; V -0.046; N 0.193; S -0.109; H 0.068; C 0.178; Y -0.466; M 0.038; K -0.004
L63: R -0.153; Q -0.459; F -0.071; C -0.215; V -0.092; I 0.097; W -0.179; Y -0.027; N -0.571; T -0.476; E -0.691; M -0.003; G -0.547; K -0.213; H -0.18; A -0.238; P -0.567; S -0.46
R62: M 0.097; H -0.165; V -0.063; D 0.02; F -0.112; E -0.073; T -0.162; A 0.022; W -0.26; C -0.072; G -0.06; N 0.015; Q 0.067; K 0.017; Y -0.138; L -0.152; S -0.095; I 0.03; P -0.399
Y67: T 0.113; N 0.138; A 0.016; V 0.019; P 0.036; I -0.16; L -0.03; F -0.242; D 0.199; M -0.14; K -0.097; H 0.033; C 0.127; E 0.037; Q 0.079; G 0.078; S 0.075
L72: H -0.909; K -0.952; S -0.801; V -0.471; G -0.953; A -0.821; N -1.02; D -0.97; C -0.726; E -0.719; Y -0.669; W -0.653; Q -0.697; I -0.199; P -0.649; T -0.543; R -0.714
H75: Y -0.113; Q 0.038; P -0.561; L -0.316; G -0.156; D 0.119; R 0.121; E -0.163; V -0.62; I -0.215; N 0.099; W -1; F -0.511; M -1.02; A -0.01; T -0.646
L79: T 0.021; S -0.141; F -0.215; I 0.061; N -0.259; M 0.179; G -0.195; E -0.054; D -0.106; K -0.014; H -0.076; C 0.114; Q -0.007; P -0.19; Y -0.454; V 0.046; R -0.002
A69: M -0.186; Q -0.564; R -0.748; W -0.203; V -0.039; G -0.124; T -0.219; S -0.352; K -0.445; L -0.658; P -0.124
T64: K -0.576; D 0.041; E -0.175; W -0.091; N 0.02; S -0.155; C -0.076; V -0.028; A -0.034; G -0.141; I -0.345; M 0.011; F 0.025; Q -0.135
Q61: S -0.032; P -0.617; R -0.026; T 0.105; Y -0.058; V -0.002; W -0.101
N68: D 0.021; L -0.48; F -0.468; Q 0.085; V 0.008; E 0.085; K -0.266; S 0.011; P 0.017; A 0.013; C -0.212; M -0.155; I -0.079; R -0.275
E81: Q 0.016; N 0.557; C -0.05; A -0.03; F -0.339; L 0.076; G 0.138; D 0.102; M -0.301; V -0.155; P -0.107; W -0.32; I -0.152; Y -0.058; H 0.108
I71: D -0.359; T 0.05; F -0.272; Q 0.03; P 0.06; A 0.036; H 0.001; S -0.148; W -0.282; K 0.074; Y -0.266; N -0.624; V 0.059; R 0.113; E -0.151; G -0.174; M 0.065
S74: W -0.603; D -0.064; R 0.006; P -0.352; M -0.124; C -0.115; I -0.342; T 0.078; G 0.026; N 0.032; Y -0.018; H 0.246; F -0.379; V -0.138; Q -0.073; L -0.217
L76: I 0.05; H -0.237; G -0.802; M -0.262; P -0.923; K -0.519; C -0.151; S -0.576; Q -0.928; N -0.794; W -0.411; A -0.342; V -0.105; E -0.742; Y -0.663; R -0.944
Y78: C 0.029; V 0.071; A 0.181; S 0.148; T 0.173; K 0.103; I 0.034; F -0.087; W -0.22; M 0.163; H -0.119; G 0.203; N 0.305; Q 0.2; D 0.228; E 0.247; P -0.033; L 0.12
D70: Q -0.042; P -0.316; E 0.07; W -0.42; K -0.097; Y -0.293; F -0.448; L -0.24; R -0.036; S -0.1; H -0.011; M -0.237; V -0.176; A -0.169; N -0.143; G -0.05; T -0.157
H77: R 0.052; L -0.087; V -0.072; G 0.194; Q -0.098; W -0.166; K 0.044; I 0.142; A 0.034; F -0.226; M -0.24; S -0.026; T -0.119; E 0.099; D -0.128; N 0.112; Y -0.295
